# Measurements published in patent US20100254975A1 (Amgen, published 2010).
# Residue numbers refer to the chain shown, from its start.
# B1: 17C8 (antibody, V domains shown)
# VH: QVQLVESGGGLVKPGGSLRLSCAASGFTFSDYYMSWIRQAPGKGLEWLSYISNSGSAMYYADSVKGRFTISRDNARNSLYLQMNSLRAEDTAVYYCAREYSSGWFFFESWGQGTLVTVSS
# VL: EIVMTQSPATLSVSPGERATLSCRASQSVSSNLVWYQQKPGQAPRLLIYGASTRATGIPARFSGSGSGTDFTLTISSLQSEDFAVYYCQQYDDWPPLTFGGGTTVEIK
# notes: Fully human monoclonal from XenoMouse (human IgG2 or IgG4); kappa light chain; also called 17C8K; 17C8H
# B2: 2F12 (antibody, V domains shown)
# VH: QVQLVQSGAEVKKPGASVKVSCKVSGYTVTDLSMHWVRQAPGKGLEWMGGFDPQDGETIYAQKFQGRVTMTEDTSTDTAYMELRSLRSEDTAVYYCTTESSSAWFDPWGQGTLVTVSS
# VL: DIQMTQSPSSVFASVGDRVTITCRASQGISSWLAWYQQKPGKAPNLLIYGASSLQNGVPLRFSGSGSGTDFTLTISSLQPEDFATYYCQQANSFPWTFGQGTKVEIK
# notes: Fully human monoclonal from XenoMouse (human IgG2 or IgG4); kappa light chain; also called 2F12K; 2F12H
# B3: 18A11 (antibody, V domains shown)
# VH: B2 VH with V29L, T30S, M34I, R84S, R87K, T97A, E99G, A103S
# VL: B2 VL with F12S, N45K, S53N, Q55E, N56S, L60S, T85N
# notes: Fully human monoclonal from XenoMouse (human IgG2 or IgG4); kappa light chain; also called 18A11K; 18A11H
# What was measured:
# a4(V824A)b7 (human) [1] = target: a4(V824A)b7 (human) (UniProt P13612); assay: FACS on transfected 293 cells, 1 microG/ml, PE anti-human IgG; control
# Chain of a4(V824A)b7 (human) (P13612 34-1032 V824A, chain 1 of 2): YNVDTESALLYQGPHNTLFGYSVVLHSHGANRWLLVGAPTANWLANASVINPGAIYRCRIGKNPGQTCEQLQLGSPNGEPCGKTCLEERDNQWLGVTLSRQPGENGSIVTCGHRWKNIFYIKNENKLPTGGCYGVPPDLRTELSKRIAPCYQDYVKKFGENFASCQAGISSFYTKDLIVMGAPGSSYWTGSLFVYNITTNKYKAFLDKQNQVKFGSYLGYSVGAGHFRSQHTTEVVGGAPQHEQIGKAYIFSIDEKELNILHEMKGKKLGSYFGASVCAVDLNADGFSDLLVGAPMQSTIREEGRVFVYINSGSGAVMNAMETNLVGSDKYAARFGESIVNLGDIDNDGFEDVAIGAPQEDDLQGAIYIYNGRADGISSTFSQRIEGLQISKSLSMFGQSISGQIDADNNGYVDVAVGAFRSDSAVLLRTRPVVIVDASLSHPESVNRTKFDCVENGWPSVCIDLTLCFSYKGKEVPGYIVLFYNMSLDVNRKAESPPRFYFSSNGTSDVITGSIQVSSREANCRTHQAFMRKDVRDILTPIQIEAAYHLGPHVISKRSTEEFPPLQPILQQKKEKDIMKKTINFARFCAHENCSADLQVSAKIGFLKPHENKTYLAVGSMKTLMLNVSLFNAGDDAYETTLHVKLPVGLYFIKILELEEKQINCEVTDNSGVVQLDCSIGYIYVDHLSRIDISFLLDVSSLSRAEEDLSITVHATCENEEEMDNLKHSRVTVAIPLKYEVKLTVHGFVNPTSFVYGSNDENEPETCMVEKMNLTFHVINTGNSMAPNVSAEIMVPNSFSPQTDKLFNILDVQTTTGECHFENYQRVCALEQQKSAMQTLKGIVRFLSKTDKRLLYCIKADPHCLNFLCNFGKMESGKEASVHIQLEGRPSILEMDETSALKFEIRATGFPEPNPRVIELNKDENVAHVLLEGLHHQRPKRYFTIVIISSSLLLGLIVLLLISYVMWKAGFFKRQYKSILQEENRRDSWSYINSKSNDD
# Chain of a4(V824A)b7 (human) (P26010 20-798, chain 2 of 2, further chain): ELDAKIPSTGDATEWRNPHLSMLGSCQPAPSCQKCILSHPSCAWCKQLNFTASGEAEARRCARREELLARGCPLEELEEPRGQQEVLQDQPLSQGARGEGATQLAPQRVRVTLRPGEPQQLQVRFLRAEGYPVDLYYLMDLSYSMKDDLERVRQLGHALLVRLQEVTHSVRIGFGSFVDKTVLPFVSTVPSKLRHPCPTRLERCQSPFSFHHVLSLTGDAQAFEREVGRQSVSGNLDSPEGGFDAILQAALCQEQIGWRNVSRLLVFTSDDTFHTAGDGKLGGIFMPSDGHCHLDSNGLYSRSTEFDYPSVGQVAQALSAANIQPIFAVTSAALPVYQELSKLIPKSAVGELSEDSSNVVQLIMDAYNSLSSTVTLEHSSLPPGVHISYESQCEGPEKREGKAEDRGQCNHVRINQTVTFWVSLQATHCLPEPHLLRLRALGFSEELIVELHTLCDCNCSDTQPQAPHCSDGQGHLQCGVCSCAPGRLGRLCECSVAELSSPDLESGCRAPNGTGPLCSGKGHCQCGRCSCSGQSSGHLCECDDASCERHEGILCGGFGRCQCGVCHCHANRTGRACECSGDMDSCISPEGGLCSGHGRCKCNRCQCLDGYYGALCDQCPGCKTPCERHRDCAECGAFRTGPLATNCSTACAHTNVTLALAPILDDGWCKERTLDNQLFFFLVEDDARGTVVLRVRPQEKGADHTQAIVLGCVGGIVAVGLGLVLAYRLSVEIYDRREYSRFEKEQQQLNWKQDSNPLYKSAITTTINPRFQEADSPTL
# a4b7(E97V) (human) [2] = target: a4b7(E97V) (human) (UniProt P13612); assay: as above
# Chain of a4b7(E97V) (human) (P13612 34-1032, chain 1 of 2): as the sequence (P13612 34-1032 V824A, chain 1 of 2) above, with A791V counted along it
# Chain of a4b7(E97V) (human) (P26010 20-798 E97V, chain 2 of 2, further chain): as the sequence (P26010 20-798, chain 2 of 2, further chain) above, with E78V counted along it
# human alpha4beta7 [3] = target: T1, human alpha4beta7 (human, UniProt P13612 34-1032; P26010 20-798); assay: as above
# T1 sequence (P13612 34-1032, chain 1 of 2): as the sequence (P13612 34-1032 V824A, chain 1 of 2) above, with A791V counted along it
# T1 sequence (P26010 20-798, chain 2 of 2): as the sequence (P26010 20-798, chain 2 of 2, further chain) above
# a4b7(R213S) (human) [4] = target: a4b7(R213S) (human) (UniProt P13612); assay: as above
# Chain of a4b7(R213S) (human) (P13612 34-1032, chain 1 of 2): as the sequence (P13612 34-1032 V824A, chain 1 of 2) above, with A791V counted along it
# Chain of a4b7(R213S) (human) (P26010 20-798 R213S, chain 2 of 2, further chain): as the sequence (P26010 20-798, chain 2 of 2, further chain) above, with R194S counted along it
# a4b7(G629S) (human) [5] = target: a4b7(G629S) (human) (UniProt P13612); assay: as above
# Chain of a4b7(G629S) (human) (P13612 34-1032, chain 1 of 2): as the sequence (P13612 34-1032 V824A, chain 1 of 2) above, with A791V counted along it
# Chain of a4b7(G629S) (human) (P26010 20-798 G629S, chain 2 of 2, further chain): as the sequence (P26010 20-798, chain 2 of 2, further chain) above, with G610S counted along it
# a4(Q878R)b7 (human) [6] = target: a4(Q878R)b7 (human) (UniProt P13612); assay: as above
# Chain of a4(Q878R)b7 (human) (P13612 34-1032, chain 1 of 2): as the sequence (P13612 34-1032 V824A, chain 1 of 2) above, with A791V counted along it
# Chain of a4(Q878R)b7 (human) (P26010 20-798, chain 2 of 2, further chain): as the sequence (P26010 20-798, chain 2 of 2, further chain) above
# human alpha4beta7 [7] = target: T1, human alpha4beta7; assay: KinExA, HUT78 cells expressing human alpha4beta7, n-curve analysis
# Description: (§1) To measure cell binding affinity of human anti-alpha4beta7antibodies, a Kinetic Exclusion Assay which measures binding events in solution phase can be used to calculate the equilibrium dissociation constant, Kd. KinExA® Technology (Sapidyne Instruments, Boise, Id.) was used, substantially as described previously by Xie et. al. J. Imm, Methods 304:1 (2005) and Rathanaswami et. al. Anal. Biochem. 373:52 (2008). Briefly, HUT78 cells expressing human alpha4beta7 were titrated 1 in 3 from […] to ˜400 cells/mL and then equilibrated with a final concentration of either 2 or 30 pM of mAb 2F12 or 18A11 and 30 or 500 pM for 17C8 for 18 hours at 4° C. The free antibody remaining in the supernatant at equilibrium was measured by KinExA® technology by passing the supernatant over PMMA beads pre-coated with goat anti-human Fc and detected with goat anti-human (H+L) Cy5 (substantially as described by Rathanaswami et al. Biochem Biophys Research Commun:1004 (2005). The equilibrium dissociation constant (Kd) is obtained using KinExA® software by “n-curve analysis” which fits all of the given curves to a single Kdvalue simultaneously (Rathanswami et al. 2005 and Xie et al., supra).; results are shown below in Table 7.
# human alpha4beta7 [8] = target: T1, human alpha4beta7; assay: cell-based or functional assay
# human alpha4beta7 [9] = target: T1, human alpha4beta7; assay: KinExA, HUT78 cells expressing human alpha4beta7, upper bound of Kd
# Description: as §1
# human alpha4beta7 [10] = target: T1, human alpha4beta7; assay: FACS competition, blocks biotinylated MAdCAM-1-Fc binding to human CD4+CD45RA- memory T cells
# Experimental: PBMC (fresh or frozen as described previously) are washed and resuspended in HEPES buffer (30 mM HEPES+[…]) with 1% BSA and 1 mM MnCl. to a final concentration of 10⁷cells/ml. Cells are blocked as described previously; after blocking, cells are incubated with a serial dilution of anti-alpha4beta7 antibody (or appropriate control) in 96 well plates for 30 minutes on ice, and then with 0.3 microG/ml biotinylated MAdCAM-1-Fc protein for another one hour.
# After two washes in HEPES buffer with 1 mM MnCl, cells are treated with 1:100 dilution of streptavidin-PE, 4 microL CD3-Pacific Blue, CD4-PerCP-Cy5.5 and CD45RA-FITC as described previously, in a final volume of 100 microL. After one hour incubation on ice, cells are washed twice with HEPES buffer with 1 mM MnCl and then fixed in 200 microL buffer plus 0.5% paraformaldehyde. The percentage of positive MAdCAM-1-Fc binding CD4+CD45RA-memory T cells is determined by fluorescence activated cell sorter (FACS) analysis, as described previously.
# a4(V824A)b7 (human) [11] = target: a4(V824A)b7 (human) (UniProt P13612); assay: FACS on transfected 293 cells, 1 microG/ml, PE anti-human IgG
# a4b7(E97V) (human) [12] = target: a4b7(E97V) (human) (UniProt P13612); assay: as above
# a4b7(R213S) (human) [13] = target: a4b7(R213S) (human) (UniProt P13612); assay: as above
# a4b7(G629S) (human) [14] = target: a4b7(G629S) (human) (UniProt P13612); assay: as above
# a4(Q878R)b7 (human) [15] = target: a4(Q878R)b7 (human) (UniProt P13612); assay: as above
# human alpha4beta7 [16] = target: T1, human alpha4beta7; assay: FACS, biotinylated antibody on human CD4+CD45RA- memory T cells
# Experimental: Human peripheral blood mononuclear cells (PBMC; fresh or frozen and thawed, for example in phosphate buffered saline with 2% FBS) are washed and resuspended in HEPES buffer (30 mM HEPES+[…]) with 1% BSA, with or without 1 mM MnCl₂ (depending on the experiment; Mn²⁺ is necessary for MAdCAM-1 binding) and plated into 96 well plates (10⁶cells/well). Cells are incubated with 10 microG/ml human IgG for 30 minutes on ice to block nonspecific binding. Cells are then incubated with serial dilutions of biotinylated anti-alpha4beta7 antibodies in 96 well plates for one hour on ice, followed by addition of 1:100 dilution of streptavidin-phycoerythrin (PE; Jackson ImmunoResearch Laboratories Inc., West Grove, Pa.), 4 microL CD3-Pacific Blue, CD4-PerCP-Cy5.5 and CD45RA-fluorescein isothiocyanate (FITC) (BD Biosciences, San Jose Calif.) for a final volume of 100 microL, and incubated for another hour on ice. Cells were washed twice with HEPES buffer (with or without MnCl₂, correspondingly) and then fixed in 200 microL HEPES buffer plus 0.5% paraformaldehyde (again, with or without MnCl₂, correspondingly). The percentage of positive alpha4beta7 antibody binding CD4+CD45RA-memory T cells is determined using a fluorescence activated cell sorter (FACS), for example, a BD™ LSR II benchtop flow cytometer (BD Biosciences, San Jose Calif.).
# human alpha4beta7 [17] = target: T1, human alpha4beta7; assay: KinExA, HUT78 cells expressing human alpha4beta7, lower bound of Kd
# Description: as §1
# human alpha4beta7 [18] = target: T1, human alpha4beta7; assay: FACS on transfected 293 cells, 1 microG/ml, PE anti-human IgG
# Description: Point mutant constructs representing amino acid altering SNPs (a4b7(E97V); a4b7(R213S); a4b7(G629S; a4(V824A)b7; a4(Q878R)b7) in the extracellular domains of both alpha4 and beta7 were generated. Each point mutant construct was transfected to 293 cells along with the wild-type partner expression construct. Transfected 293 cells were first stained with 1 microG/ml of human IgG or anti-alpha4beta7 antibody, washed with PBS, and the stained with phycoerytherin conjugated secondary antibody goat-anti human IgG. After washing with PBS, cells were analyzed by fluorescence activated cell sorting, for example, with a FACSCalibur™ (BD Biosciences, San Jose Calif.).
Molecule,fluorescence staining intensity (geometric mean) (a4(V824A)b7 (human) [1]),fluorescence staining intensity (geometric mean) (a4b7(E97V) (human) [2]),fluorescence staining intensity (geometric mean) (human alpha4beta7 [3]),fluorescence staining intensity (geometric mean) (a4b7(R213S) (human) [4]),fluorescence staining intensity (geometric mean) (a4b7(G629S) (human) [5]),fluorescence staining intensity (geometric mean) (a4(Q878R)b7 (human) [6]),Kd (human alpha4beta7 [7]) [pM],HUT78 Adhesion IC50 (human alpha4beta7 [8]) [ng/mL],Kd high (human alpha4beta7 [9]) [pM],IC50 (human alpha4beta7 [10]) [ng/mL],fluorescence staining intensity (geometric mean) (a4(V824A)b7 (human) [11]),fluorescence staining intensity (geometric mean) (a4b7(E97V) (human) [12]),fluorescence staining intensity (geometric mean) (a4b7(R213S) (human) [13]),fluorescence staining intensity (geometric mean) (a4b7(G629S) (human) [14]),fluorescence staining intensity (geometric mean) (a4(Q878R)b7 (human) [15]),EC50 (human alpha4beta7 [16]) [ng/mL],Kd low (human alpha4beta7 [17]) [pM],fluorescence staining intensity (geometric mean) (human alpha4beta7 [18])
human IgG (antibody),7,7,8,7,7,7,,,,,,,,,,,,
B1,,,,,,,29.4,6.8,74.5,31.1,74,96,49,58,51,22.9,12.1,93
B2,,,,,,,4.56,11.4,11.1,4.6,112,134,37,80,73,3.3,1.94,129
B3,,,,,,,0.9,7.4,2.29,7.3,82,105,30,63,56,4.7,0.23,92
